Patent publication US20220298235A1 (AKESO BIOPHARMA, published 2022)

B1: ustekinumab (antibody, V domains shown)
VH: EVQLVQSGAEVKKPGESLKISCKGSGYSFTTYWLGWVRQMPGKGLDWIGIMSPVDSDIRYSPSFQGQVTMSVDKSITTAYLQWNSLKASDTAMYYCARRRPGQGYFDFWGQGTLVTVSS
VL: DIQMTQSPSSLSASVGDRVTITCRASQGISSWLAWYQQKPEKAPKSLIYAASSLQSGVPSRFSGSGSGTDFTLTISSLQPEDFATYYCQQYNIYPYTFGQGTKLEIK
B2: H5L9 (antibody, human IgG1, kappa, V domains shown)
VH: EVQLVQSGAEVKKPGESLKISCQSSGYSFTTYWIGWVRQMPGQGLEWIGIMSPVDSDIRYNPMFRGQVTMSVDKSSSTAYLQWSSLKASDTAMYYCARRRPGQGYFDFWGQGTMVTVSS
VL: DIQMTQSPSSLSASVGDRVTITCKASQNVGSWLAWYQQKPGKAPKSLIYSASSRQSGVPSRFSGSGSGTDFTLTISSLQPEDFATYYCQQYDIYPFTFGQGTKLEIKR
notes: human IgG1 (P01857) / kappa (P01834) constant regions; also called humanized antibody H5L9

Columns and labels:
human p40-His [1] = target: T1, human p40-His (human, UniProt P29460 23-328); assay: indirect ELISA, p40-His coat 0.25 µg/mL
T1 construct: Made by Akeso Biopharma; construct limits and tag not described; also called human IL-12/IL-23 p40 protein domain; human IL-12/IL-23 p40; not shown: His tag
T1 sequence (looked up): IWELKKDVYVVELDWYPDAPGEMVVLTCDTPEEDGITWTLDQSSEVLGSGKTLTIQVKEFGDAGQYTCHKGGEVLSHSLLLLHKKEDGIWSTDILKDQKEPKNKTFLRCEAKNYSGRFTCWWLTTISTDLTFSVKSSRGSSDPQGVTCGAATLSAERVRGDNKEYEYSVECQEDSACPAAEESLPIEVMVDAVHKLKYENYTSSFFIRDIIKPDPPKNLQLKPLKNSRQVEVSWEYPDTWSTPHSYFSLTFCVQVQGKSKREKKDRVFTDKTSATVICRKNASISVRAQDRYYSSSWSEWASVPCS
Procedure: (§1) A microplate was coated with human p40-His (Akeso Biopharma, Inc.; gene of p40: GeneBank NM002187). After incubation at 4° C. for no less than 12 h, the plate was washed with PBST, patted dry and blocked with a solution of 1% BSA in PBS. After blocking was completed, the plate was washed with PBST and patted dry. The antibody diluted with PBST solution in gradient was added into the wells of the plate, and the antibody dilution gradient is detailed in Table 1. The plate containing the test antibody was incubated at 37° C. for 30 min and then washed with PBST and patted dry. […] TMB (Neogen, 308177) was added for color developing for 5 min in the absence of light, and then stop solution was added to terminate the chromogenic reaction. Then the plate was put into a plate reader immediately, and the OD value of each well in the plate was read at 450 nm. The data were analyzed by SoftMax Pro 6.2.1.
The binding EC₅₀ of antibody was calculated by curve fitting using antibody concentration as the abscissa and absorbance value as the ordinate, and the results are shown in Table 4 below.

[2] = target: T2, human IL-23 (IL-23-His-Biotin) (human, UniProt Q9NPF7 20-189; P29460 23-328, biotin label, site not stated); assay: FACS competition, IL23-His-Biotin (4 µg/mL mixed 1:1) on 293T-IL-12Rβ1&IL-23R cells
T2 construct: Akesobio lot 20161209; His-tagged and biotinylated
T2 sequence (looked up) 1: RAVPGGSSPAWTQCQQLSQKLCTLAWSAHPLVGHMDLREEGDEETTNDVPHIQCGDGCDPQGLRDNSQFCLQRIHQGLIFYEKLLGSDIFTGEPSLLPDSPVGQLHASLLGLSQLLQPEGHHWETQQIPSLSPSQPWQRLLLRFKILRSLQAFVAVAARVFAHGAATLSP
T2 sequence (looked up) 2: T1 sequence (looked up)
Procedure: 200 μL of 1% PBSA was added into each sample, and the mixture was centrifuged at 1200 rpm for 5 min to discard the supernatant. According to experiment design, correspondingly diluted antibody (highest concentration of 60 μg/mL, 3-fold dilution, 8 concentrations in total) and human IL23-His-Biotin (Akeso Biopharma, Inc., Lot. No.: 20161209) (4 μg/mL) were mixed at a ratio of 1:1, and a blank control was set. The mixture of antibody and IL23-His-Biotin was incubated on ice for 30 min and then added to the cell precipitate at 100 μL/sample. The resulting mixture was well mixed and incubated on ice for 60 min. 200 μL of 1% PBSA was added, and the mixture was centrifuged at 1200 rpm for 5 min to discard the supernatant, and then washed twice. FITC Steptavidin (Biolegend, Cat. No.: 405202) was diluted at a ratio of 1:500 and added to each tube at 100 μL. The mixture was well mixed and incubated on ice for 40 min in the absence of light. 200 μL of 1% PBSA was added, and the mixture was centrifuged at 1200 rpm for 5 min to discard the supernatant, and then washed twice. 1% PBSA was added at 200 μL/tube, and the cells were resuspended and transferred to a flow cytometry tube for testing.

Human IL12 (His Tag) = target: T3, Human IL12 (His Tag) (human, UniProt P29459 23-219; P29460 23-328); assay: FACS competition, IL12-His (40 nM mixed 1:1) on 293T-IL-12Rβ1&IL-23R cells
T3 construct: Bought His-tagged heterodimer
T3 sequence (looked up) 1: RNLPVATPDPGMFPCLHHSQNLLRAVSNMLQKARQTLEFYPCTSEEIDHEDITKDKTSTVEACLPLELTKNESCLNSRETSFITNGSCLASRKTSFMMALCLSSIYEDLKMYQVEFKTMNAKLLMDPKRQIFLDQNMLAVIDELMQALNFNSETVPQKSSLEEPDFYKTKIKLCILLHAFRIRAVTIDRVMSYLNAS
T3 sequence (looked up) 2: T1 sequence (looked up)
Procedure: 200 μL of 1% PBSA was added into each sample, and the mixture was centrifuged at 1200 rpm for 5 min to discard the supernatant. According to experiment design, correspondingly diluted antibody (highest final concentration of 60 μg/mL, 3-fold dilution, 8 concentrations in total) and IL12-His (Sino Biological, Cat. No.: CT-050-H08H-20) (40 nM) were mixed at a ratio of 1:1, and a blank control was set. The mixture of antibody and IL12 was incubated on ice for 30 min and then added to the cell precipitate at 100 μL/sample. The resulting mixture was well mixed and incubated on ice for 60 min 200 μL of 1% PBSA was added, and the mixture was centrifuged at 1200 rpm for 5 min to discard the supernatant, and then washed twice. THETM His tag antibody (FITC) (Genscript, Cat. No.: A01620) was diluted at a ratio of 1:500 and added to each tube at 100 μL. The mixture was well mixed and incubated on ice for 40 min in the absence of light. 200 μL of 1% PBSA was added, and the mixture was centrifuged at 1200 rpm for 5 min to discard the supernatant, and then washed twice. 1% PBSA was added at 200 μL/tube, and the cells were resuspended and transferred to a flow cytometry tube for testing.

human p40-His [3] = target: T1, human p40-His; assay: indirect ELISA, p40-His coat 0.125 µg/mL
Procedure: as §1
The binding EC₅₀ of antibody was calculated by curve fitting using antibody concentration as the abscissa and absorbance value as the ordinate, and the results are shown in Table 1 below.

Binder | EC50 (human p40-His [1]) [nM] | EC50 [2] [µg/mL] | EC50 (Human IL12 (His Tag)) [µg/mL] | EC50 (human p40-His [3]) [nM]
B1 | 0.077 | 1.43 | 1.58 | 
B2 |  |  |  | 0.079
